Measurements as given in PMC3531509.

Target: rabbit muscle actin (rabbit) (UniProt P68135)
Assay: ELISA

“Calmodulin-like calcium binding protein EhCaBP3 of Entamoeba histolytica (recombinant, wild type) (natural protein)” gave a percent inhibition of binding by EGTA of 75%.
